Assays:
human serum albumin [1] = molecular target: T1, human serum albumin (human, UniProt P02768 25-609); experiment: solution binding competition ELISA: phage pre-incubated with 1 µM HSA, unbound phage captured on coated HSA; signal with competitor / without
T1 construct: HSA used in ELISA and SPR was bought (Sigma); also called HSA
Procedure: (§1) A competition ELISA was performed to determine the relative binding affinity for the selected phage clones. 96-well Nunc Maxisorp plates were coated with 2 μg/ml HSA in coating buffer at 4° C. Plates were blocked with SuperblockT20 (Pierce) for 1 h at room temperature. The microtiter plates were washed with wash buffer (PBS, 0.05% Tween 20).
Unbound phage was captured by transferring 100 μl of the well mixture to the HSA coated Maxisorp plate and incubating at room temperature for 30 minutes. The plate with captured phage was washed with PBS-0.05% Tween 20 five times. Bound phages were detected with anti-M13 and goat-anti mouse IRDye conjugate. The amount of IRDye bound was measured on Odyssey (LI-COR Biosciences). The ratio of phage binding was calculated by the following equation: fluorescence signal of well with competitor/fluorescence signal of well with no competitor (Table III).

von Willebrand factor = molecular target: T2, von Willebrand factor (human, UniProt P04275 764-2813); experiment: inhibition ELISA of ristocetin-induced binding of vWF to platelets
T2 construct: also called vWF; VWF
Procedure: After 3 times washing with phosphate buffered saline (PBS), wells were incubated for 1 hour at room temperature (RT) with formalin fixed human platelets (Dade Behring, Newark, Del.) which were diluted two-fold in PBS or—as a blank—with PBS. Wells were washed 3 times with PBS and blocked for 2 hours at RT with PBS containing 4% bovine serum albumin (BSA, Sigma). A dilution series of compound was prepared in human plasma and was preincubated for 30 min at RT with 1.5 mg/mL ristocetin (abp, NJ, USA) after which the mixture was transferred to the coated wells. […] For the analysis of the data, the absorbance values were corrected using the absorbance of the respective blanks.

human serum albumin [2] = molecular target: T1, human serum albumin; experiment: phage competition ELISA: signal of well with 2 µM HSA competitor / signal of well with no competitor
Procedure: as §1
After respectively three and four selection rounds, monoclonal phage were screened for binding on HSA, in the manner described in Example 2. […] The ratio of phage binding was calculated by the following equation: fluorescence signal of well with 2 μM competitor/fluorescence signal of well with no competitor (Table VI).

Ratio 1 µM/0 µM HSA (human serum albumin [1]) | Ratio 2 µM/0 µM HSA (human serum albumin [2]) | Binder | further results
0.47 ratio |  | AALYDDYDVFGGGTPVGG (also called 01C7; PMP26A3 (in the text)) [PMP56A3] | 
0.43 ratio |  | AAFYDDYDVFGGGTPAGG (also called 01G7; PMP54H5 (in the text)) [PMP56H5] | 
0.42 ratio |  | AALYDDYDVFGGGTPAGG [01B3] | 
 |  | 12A2 sv1-AAA-12A2 sv1-9GS-59C2-9GS-59C2 (vWF-0056) (VHH, bivalent anti-vWF Nanobody with a C-terminal tandem repeat of 59C2) DVQLVESGGGLVQPGGSLRLSCAASGRTFSYNPMGWFRQAPGKGRELVAAISRTGGSTYYPESVEGRFTISRDNAKRTVYLQMNSLRAEDTAVYYCAAAGVRAEQGRVRTLPSEYTFWGQGTQVTVSSAAAEVQLVESGGGLVQPGGSLRLSCAASGRTFSYNPMGWFRQAPGKGRELVAAISRTGGSTYYPESVEGRFTISRDNAKRTVYLQMNSLRAEDTAVYYCAAAGVRAEQGRVRTLPSEYTFWGQGTQVTVSSGGGGSGGGSRDWDFDVFGGGTPVGGGGGGSGGGSRDWDFDVFGGGTPVGG | binding result (von Willebrand factor): binds
 | 0.91 ratio | AARDWDFDVFGGGTPVGG (also called EXP59C2) [59C2] | 
 | 0.69 ratio | AARYWDFDVFGGGTPVGG [59F2] | 
 | 0.87 ratio | AARSWDFDVFGGGTPVGG [59H12] | 
 |  | 12A2 sv1-AAA-12A2 sv1-9GS-59C2 (vWF-0055) (VHH, bivalent anti-vWF Nanobody with one C-terminal 59C2 peptide) DVQLVESGGGLVQPGGSLRLSCAASGRTFSYNPMGWFRQAPGKGRELVAAISRTGGSTYYPESVEGRFTISRDNAKRTVYLQMNSLRAEDTAVYYCAAAGVRAEQGRVRTLPSEYTFWGQGTQVTVSSAAAEVQLVESGGGLVQPGGSLRLSCAASGRTFSYNPMGWFRQAPGKGRELVAAISRTGGSTYYPESVEGRFTISRDNAKRTVYLQMNSLRAEDTAVYYCAAAGVRAEQGRVRTLPSEYTFWGQGTQVTVSSGGGGSGGGSRDWDFDVFGGGTPVGG | binding result (von Willebrand factor): binds
 | 0.82 ratio | AARYWDYDVFGGGTPVGG (also called EXP56E4) [PMP56E4] | 

— patent publication US20110243954A1 (published 2011)
